Our source for the stoichiometry relative to CAPS1 (bands of the immunoprecipitate) (Rbcn3 subunit : CAPS1) values is paper PMC6579465.

The assay concerns the target CAPS1 (calcium-dependent activator protein for secretion, CADPS) (rat (endogenous in rat brain)) (UniProt Q62717). The assay is described as follows: affinity purification with mass spectrometry; CAPS1 immunoprecipitate of detergent extract resolved by SDS-PAGE; Coomassie-stained bands seen in the CAPS1 but not the control immunoprecipitate excised, in-gel digests, LC-MS/MS.

Sequence of CAPS1 (calcium-dependent activator protein for secretion, CADPS) (rat (endogenous in rat brain)) (Q62717 whole entry): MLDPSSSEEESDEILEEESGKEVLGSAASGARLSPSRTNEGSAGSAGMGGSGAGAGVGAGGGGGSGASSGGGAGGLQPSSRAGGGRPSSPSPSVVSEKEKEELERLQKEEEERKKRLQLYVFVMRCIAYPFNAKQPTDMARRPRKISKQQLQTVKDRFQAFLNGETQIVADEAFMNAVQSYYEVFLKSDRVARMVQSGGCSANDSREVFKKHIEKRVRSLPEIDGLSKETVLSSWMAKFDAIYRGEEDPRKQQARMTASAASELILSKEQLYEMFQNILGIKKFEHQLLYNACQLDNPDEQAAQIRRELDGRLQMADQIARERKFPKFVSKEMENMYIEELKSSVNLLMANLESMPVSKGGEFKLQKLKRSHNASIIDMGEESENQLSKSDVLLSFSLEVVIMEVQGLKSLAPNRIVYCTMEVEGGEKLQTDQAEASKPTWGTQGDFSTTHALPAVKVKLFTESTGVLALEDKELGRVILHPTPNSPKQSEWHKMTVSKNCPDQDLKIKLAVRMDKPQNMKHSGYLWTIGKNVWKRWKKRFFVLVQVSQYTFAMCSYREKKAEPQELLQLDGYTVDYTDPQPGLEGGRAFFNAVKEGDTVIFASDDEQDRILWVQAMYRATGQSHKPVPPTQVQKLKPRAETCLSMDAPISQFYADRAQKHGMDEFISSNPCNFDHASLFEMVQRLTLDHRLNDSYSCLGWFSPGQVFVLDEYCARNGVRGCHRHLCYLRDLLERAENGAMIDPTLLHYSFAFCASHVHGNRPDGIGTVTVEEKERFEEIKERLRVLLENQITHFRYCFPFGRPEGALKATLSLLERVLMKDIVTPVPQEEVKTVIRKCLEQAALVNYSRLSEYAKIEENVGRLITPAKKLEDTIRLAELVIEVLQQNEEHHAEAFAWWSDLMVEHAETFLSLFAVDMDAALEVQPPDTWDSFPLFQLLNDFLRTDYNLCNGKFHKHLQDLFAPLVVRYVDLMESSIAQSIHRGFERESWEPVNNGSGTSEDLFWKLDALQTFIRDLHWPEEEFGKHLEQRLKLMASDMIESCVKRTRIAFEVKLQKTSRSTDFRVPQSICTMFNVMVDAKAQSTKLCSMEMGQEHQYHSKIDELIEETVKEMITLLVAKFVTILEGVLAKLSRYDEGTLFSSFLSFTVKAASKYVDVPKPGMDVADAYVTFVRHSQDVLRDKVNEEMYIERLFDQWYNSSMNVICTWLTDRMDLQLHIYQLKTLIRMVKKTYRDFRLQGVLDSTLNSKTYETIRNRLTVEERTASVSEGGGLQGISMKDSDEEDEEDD

Take “Rabconnectin3α (Rbcn3α) / Dmx-like 2 (DMXL2) (natural protein)”: the stoichiometry relative to CAPS1 (bands of the immunoprecipitate) (Rbcn3 subunit : CAPS1) turned out to be 0.167.
